Measurements from patent publication US20130280736A1 (MOUNT SINAI HOSPITAL, published 2013).

B1: monoclonal antibody clone 6A9 (antibody, V domains shown)
VH: DVQLVESGGGLVQPGGSRKLSCAASGFTFSSFGMHWVRQAPEKGLEWVAFISSGSHTIFYADTVKGRFTISRDNPKNTLFLQMTSLRSEDTAMYYCTRDYNAYWGQGTLVTVSA
VL: DVLMTQTPLSLPVSLGDQASISCRSSQSIVHSNGNTYLEWYLQKPGQSPKLLIYKVSNRFSGVPDRFSGSGSGTDFTLKISRVEAEDLGVYYCFQGTHVPLTFGAGTKLEL
notes: also called anti-HIF-1αP564^OH
B2: prolyl-4-hydroxylase 3 (PHD3) (enzyme, human, UniProt Q9H6Z9 1-239, looked up)
chain: MPLGHIMRLDLEKIALEYIVPCLHEVGFCYLDNFLGEVVGDCVLERVKQLHCTGALRDGQLAGPRAGVSKRHLRGDQITWIGGNEEGCEAISFLLSLIDRLVLYCGSRLGKYYVKERSKAMVACYPGNGTGYVRHVDNPNGDGRCITCIYYLNKNWDAKLHGGILRIFPEGKSFIADVEPIFDRLLFFWSDRRNPHEVQPSYATRYAMTVWYFDAEERAEAKKKFRNLTRKTESALTED
notes: Endogenous protein in human placental tissues; the method of the preliminary experiment is not described

Key:
HIF-1αP402R-P564R = assay: Western blot of lysates of transfected JEG3 cells, β-actin as loading control
Procedure: Thus, the antibodies may be useful in predicting the severity of preeclampsia. The monoclonal antibodies were affinity purified, their IgG isotype was determined and their specificity validated (see Table 2 and FIGS. 7 and 8). The antibodies were validated using the following strategy. […] Following transfection with the various HIF-1α constructs, JEG-3 choriocarcinoma and HEK293 cells were cultured with proteosomal inhibitor MG-132 to prevent HIF degradation and Western blot and immunofluorescence analyses were used to establish the specificity and utility of the various clones. Validation experiments were run in parallel using both purified and non-purified clones to rule out potential changes in antibody performance following purification. The Western blot results unequivocally indicate that clones 1H1, 6H4 and 5A5 recognize HIF-P402^OH; clone 6A9 recognizes HIF-P564^OH; clone 7D6 recognizes both HIF-P402^OH and HIF-P64^OH; and clone 7E3 is excellent to detect total HIF-1α. […] Immunofluorescence analysis was conducted in cells and tissue sections.

[1] = biological target: T1, prolyl-4-hydroxylase 2 (PHD2) (human, UniProt Q9GZT9 2-426, limits assumed); assay: preliminary experiments, method not described
T1 construct: Endogenous protein in human placental tissues
T1 sequence (Q9GZT9 2-426 limits assumed): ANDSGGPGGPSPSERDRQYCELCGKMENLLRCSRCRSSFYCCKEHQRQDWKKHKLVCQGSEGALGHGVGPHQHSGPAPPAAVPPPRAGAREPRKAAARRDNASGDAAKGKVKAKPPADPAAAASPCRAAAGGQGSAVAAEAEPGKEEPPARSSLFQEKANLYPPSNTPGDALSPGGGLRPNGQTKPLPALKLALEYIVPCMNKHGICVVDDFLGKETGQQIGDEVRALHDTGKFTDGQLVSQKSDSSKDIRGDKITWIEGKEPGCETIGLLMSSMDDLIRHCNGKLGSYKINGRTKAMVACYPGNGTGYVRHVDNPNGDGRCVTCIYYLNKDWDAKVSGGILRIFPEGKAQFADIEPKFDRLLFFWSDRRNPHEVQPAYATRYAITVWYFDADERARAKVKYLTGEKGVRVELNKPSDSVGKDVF

Sequence of HIF-1αP402R-P564R (chain, as listed by the source P402R P564R P402R P564R limits assumed): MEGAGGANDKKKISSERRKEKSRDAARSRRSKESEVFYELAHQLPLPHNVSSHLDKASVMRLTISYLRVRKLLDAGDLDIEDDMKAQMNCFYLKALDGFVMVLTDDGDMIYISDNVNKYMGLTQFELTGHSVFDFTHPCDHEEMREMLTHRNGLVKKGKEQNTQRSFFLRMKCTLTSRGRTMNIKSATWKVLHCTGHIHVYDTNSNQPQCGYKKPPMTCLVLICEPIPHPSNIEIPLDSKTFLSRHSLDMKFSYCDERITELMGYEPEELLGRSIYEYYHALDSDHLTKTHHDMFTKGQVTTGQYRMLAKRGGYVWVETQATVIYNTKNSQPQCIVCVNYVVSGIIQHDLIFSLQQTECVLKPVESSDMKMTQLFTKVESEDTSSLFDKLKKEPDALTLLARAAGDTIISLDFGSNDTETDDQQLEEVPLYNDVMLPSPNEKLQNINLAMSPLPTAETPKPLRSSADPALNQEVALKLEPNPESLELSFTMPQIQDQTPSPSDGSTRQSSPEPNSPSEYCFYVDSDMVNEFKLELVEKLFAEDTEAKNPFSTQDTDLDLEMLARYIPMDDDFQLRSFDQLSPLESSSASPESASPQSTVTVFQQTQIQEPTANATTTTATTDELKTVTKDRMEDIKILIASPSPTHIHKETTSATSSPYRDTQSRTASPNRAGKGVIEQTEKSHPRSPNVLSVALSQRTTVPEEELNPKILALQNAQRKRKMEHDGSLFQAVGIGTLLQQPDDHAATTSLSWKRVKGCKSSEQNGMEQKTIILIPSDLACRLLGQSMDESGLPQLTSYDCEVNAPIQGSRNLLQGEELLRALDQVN

| Binder | binding result (HIF-1αP402R-P564R) | binding result [1] |
| --- | --- | --- |
| B1 | no binding |  |
| B2 |  | binds |
